The results in this text go back to the nanobody polyreactivity screen of Harvey et al. (2022).

A short description of the data set: yeast display, Sf9 membrane polyspecificity reagent, FACS + sequencing; frameworks hold sequencing errors. The essentials:
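Synthetic nanobody libraries on Saccharomyces cerevisiae BJ5465 were galactose-induced for 36–48 hours, stained 1 hour at 4 °C with 10% biotinylated, detergent-solubilized Sf9 membrane reagent and enriched on streptavidin microbeads. FACS then separated cells into low and high (top ~1%) gates by anti-HA (expression) and streptavidin (reagent binding) fluorescence. Genes were colony-PCR amplified, MiSeq 2 × 250 sequenced and CDR-length filtered. A clone's polyreactivity label is that of its gate of origin.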
Regarding “QVQLVESGGGLVQAGGSLRLSCAASGSIFQYYVMGWYRQAPGKERELDAAIRRSGTTYYADSVKGRFTISRDNAKNTVYLQMNSLKPEDTAVDYCNADSIYYYYLIEYEYWGQGSQVTVSS”, the “polyreactivity (PSR sort gate)” value is “low polyreactivity”. With “QVQLVESGGGLVQAGGSLRLSCAASGSIFRANAMGWYRQAPGKEREMVAAISYSGGSTYYADSVKGRFSISRDNAKNTVYLLMNSLKPEDTAVYYCAAEFLYASVYYSYWGQGTQVTVSS” the entry was “high polyreactivity”. As to “QVQLVESGGGLVQAGGSLRLSCAASGSIFRAYAMGWYRQAPGKEGELVATITSGGRTNYADSVKGRFTISRDNAKNTVYLQMNSLKPEDTAVYYCNADHWLYYGAGYDYWGQGTQVTVSS”, the “polyreactivity (PSR sort gate)” value is on record as “low polyreactivity”. With “QVQLVESGGGLVQAGGSLRLSCAASGSIFRDNGMGWYRQAPGKERELVAAINSGDSTYYADSVKGRFTISRDNAKNTVYLQMNSLKPEDTAVYYCNADDRRALSQRQYDWYDYWGQGTQVTVSS” the entry was “low polyreactivity”; with “QVQLVESGGGLVQAGGSLRLSCAASGSIFRDYVMGWYRQAPGKERELVAAISGNDGSTYYADSVKGRFTISRDNAKNTVYLQMNSLKPEDTAVYYCNADEASTVPLFYSYLDFDYWGQGTQVTVSS”, “low polyreactivity”. The entry for “QVQLVESGGGLVQAGGSLRLSCAASGSIFREYAMGWYRQAPGKERELVAAITKSGGRTYYADSVKGRFTISRDNAKNTVYLQMNSLKPEDTAVYYCAADSRNSRQHTSYNRLNYWGQGTQVTVSS” is “high polyreactivity”. With “QVQLVESGGGLVQAGGSLRLSCAASGSIFRFNAMGWYRQAAGKERELVAAISVRGSRTYYADSVKGRFTSSSDNAKNTVYLQMNSLKPEDTAVYYCNAEALTYSSRYDYWGQGTQVTVSS” the entry was “low polyreactivity”; with “QVQLVESGGGLVQAGGSLRLSCAASGSIFRFYTMGWYRQAPGKQRELVAAISASGGNTYYADSVKGRFTISRDNAKNTVYLQMNSLKPEDTAVYYCARVKFTKYDYWGQGTQVTVSS”, “high polyreactivity”; with “QVQLVESGGGLVQAGGSLRLSCAASGSIFRFYVMGWYRPAPGKERELVAAISIGGSTNYADSVKGRFTISRDNAKNTVYLQMNSLKPEDTAVYYCAADYWYGAVLPHGTEFDYWGQGTQVTVSS”, “low polyreactivity”. As to “QVQLVESGGGLVQAGGSLRLSCAASGSIFRFYVMGWYRQAPGKERELVAAISIGGSTNYADSVKGRFTISRDNAKNTVFLQMNSLKPEDTAVYYCAADYWYGAGMPHGTEFDYWGQGTQVTVSS”, the “polyreactivity (PSR sort gate)” value is given as “low polyreactivity”. With “QVQLVESGGGLVQAGGSLRLSCAASGSIFRGNAMGWYRQAPGKERELVAAITRSGGRTYYADSVKGRFTISRDNANNTVYLQMNCLKPEDTAVYFCAADYPYGSPTHFDYWGQGTQVTVSS” the entry was “high polyreactivity”. With “QVQLVESGGGLVQAGGSLRLSCAASGSIFRGNAMGWYRQAPGKERELVAAITRSGGRTYYADTVKGRFTISRDNAKNTVYLHMNSLKPEDTAVYYCAAEYYTRLGYWGQGTQVTVSS” the entry was “high polyreactivity”; with “QVQLVESGGGLVQAGGSLRLSCAASGSIFRGYAMGSYRQAPGKERELVATIDSSAGSTYYADSVKGRCTISRDNAKNTVYLQMNSLKPEDTAVYYCATDPYGYYYSGFDYWGQGTQVTVSS”, “low polyreactivity”; with “QVQLVESGGGLVQAGGSLRLSCAASGSIFRGYAMGWYRQAPEKERELVAAISRRGGSTYYADSVKGRFTISRDNAKNTVYLQMNSLKPEDTAVYYCAKDGTGAGTYDYWGQGTQVTVSS”, “low polyreactivity”. The entry for “QVQLVESGGGLVQAGGSLRLSCAASGSIFRGYAMGWYRQAPGKERELVAAISWSGGSTYYADSVKGRFTISRDNAKNTVYLQMNSLKPEDTAVYYCAVEYVAYLYRMDYWGQGTQVTVSS” is “high polyreactivity”; for “QVQLVESGGGLVQAGGSLRLSCAASGSIFRGYAMGWYRQAPGRERELVAAISRSGGSTYYADSVKGRFTISRDNAKNTVYLQMNSLKPEDTAVYYCAALLRGRYRMYYWGQGTQVTVSS” it is “high polyreactivity”. For the sequence “QVQLVESGGGLVQAGGSLRLSCAASGSIFRGYAMGWYRQAPGTERELVAAITSSAGSTYYADSVKGRFTISRDNAKNTVYLQMNSLKPEDSAVYYCNKYPRASRRGFDYWGQGTQVTVSS”, the “polyreactivity (PSR sort gate)” value was “high polyreactivity”.

Regarding “QVQLVESGGGLVQAGGSLRLSCAASGSIFRGYTMGWYIQAPGKERELVAAISTRGGSTYYADSVKGRFTISRDNSKNTVYLQMNSLKPEDTAVYYCNARSRGRASGYDYWGQGTQVTVSS”, the “polyreactivity (PSR sort gate)” value was “high polyreactivity”. In the case of “QVQLVESGGGLVQAGGSLRLSCAASGSIFRGYTMGWYRQAPGKERELVAAISWSGGSTYYADSVKGRFTISRDNAKNTVYLQMNSLKPEDTAVYYCAAGDYYHRIFLWYDYWGQGTQVTVSS”, the “polyreactivity (PSR sort gate)” value is given as “low polyreactivity”. With “QVQLVESGGGLVQAGGSLRLSCAASGSIFRHNAMGWYRQAPGKERELVAAITSRGGSTYYADSVKGRFTISRDNAKNTVYLQMNSLKPEDTAVYYCAAGGHYYSSPGYNYWGQGTQVTVSS” the entry was “high polyreactivity”. Consider “QVQLVESGGGLVQAGGSLRLSCAASGSIFRHNVMGWYRQAPGKERELVAAISGGGGRTYYADSVKGRFTISRDNAKNTVYLQMNSLKPEDTAVYYCNAYVGLSEGDYWGQGTQVTVSS”, for which the “polyreactivity (PSR sort gate)” value is “high polyreactivity”. The entry for “QVQLVESGGGLVQAGGSLRLSCAASGSIFRINAMGWYRQAPGKEREFVAAISSRGGSTYYADSVKGRFTISRDNAKNTVYLQMKSLKPEDTAVYYCAKYASVGYGRYPYDYWGQGTQVTVSS” is “high polyreactivity”. The entry for “QVQLVESGGGLVQAGGSLRLSCAASGSIFRINDMGWSRQAPGKERELVAAITFSGGSTYADSVKGRFTISRDNAKNTVYLQMNSLKPEDTAVYYCNADGAYWTDYYLYDYWGQGTQVTVSS” is “low polyreactivity”; for “QVQLVESGGGLVQAGGSLRLSCAASGSIFRIYAMGWYRQAPGIERELVAAINAGGGRTYYADSVKGRFTISRDNAKNTVYLLMNSLKPEDTAVYYCAARHTEYRQESLYYWGQGTQVTVSS” it is “low polyreactivity”. With “QVQLVESGGGLVQAGGSLRLSCAASGSIFRIYAMGWYRQAPGKERELVAAIDSSGGSTYYADSVKGRFTISRDNAKNTVYFQMNSLKPEDTAVYYCNATFGYPFVDYDDYWGQGTQVTVSS” the entry was “low polyreactivity”. Turning to “QVQLVESGGGLVQAGGSLRLSCAASGSIFRIYAMGWYRQAPGKERELVAAIRNSGRTYYADSVKGRFTISRDNAKNTVYLQMNSLKPEDTAVYYCAAVGGRLRGDRGGYWGQGTQVTVSS”, the “polyreactivity (PSR sort gate)” value was “high polyreactivity”. With “QVQLVESGGGLVQAGGSLRLSCAASGSIFRIYAMGWYRQAPGKERELVAAISFSTGSRTYYADSVKGRFTISRDNAKNTVYLQMNSLKPEDTAVFYCNAESYYDYNYWGQGTQVTVSS” the entry was “low polyreactivity”; with “QVQLVESGGGLVQAGGSLRLSCAASGSIFRKNAMGWYRQAPGKERELVAAITGTGRTTYADSVKGRFTISRDNAKNTVYLQMNSLKPEDTAVYYCAAEYYYRYSYTNEGDYWGQGTQVTVSS”, “low polyreactivity”; with “QVQLVESGGGLVQAGGSLRLSCAASGSIFRKNAMGWYRQAPGKERELVATISGGGSTTYADSVKGRFTISRDNAKNTVYLQMNSLKPEDTADYYCAARSTWFQIRYGYWGQGTQVTVSS”, “high polyreactivity”. With “QVQLVESGGGLVQAGGSLRLSCAASGSIFRKNAMGWYRQAPGKETELVAAITGSGRTTYADSVKGRFTISRDNAKNTVYLQMNSLKPEDTAVYYCAADVNYYQHRLYYWGQGTQVTVSS” the entry was “low polyreactivity”.
